Experiments:
[1] = target: VP3, inner capsid protein of mud crab reovirus (MCRV) (mud crab reovirus (MCRV)); assay: cryo-EM structure; single-particle cryo-EM of purified MCRV virions, quiescent (qMCRV) and transcribing (tMCRV), in PBS; icosahedral, C1 and D5 reconstructions; atomic models built de novo
[2] = target: VP12, major outer capsid protein of mud crab reovirus (MCRV) (mud crab reovirus (MCRV)); assay: as above

Row | Substance | stoichiometry N [1] | stoichiometry N [2]
1 | VP3, inner capsid protein of mud crab reovirus (MCRV) (natural protein) | 2 | 
2 | VP12, major outer capsid protein of mud crab reovirus (MCRV) (natural protein) |  | 3
